{"source": "patent US20250144228A1", "about": "(CHILDREN S MEDICAL CENTER, published 2025)", "binders": {"B1": {"name": "anti-p42 G11 VHH (P. falciparum MSP-1 specific) (VHH)", "VHH": "QVQLVETGGGLVQAGGSLRLSCVVSGRSLILYGMGWFRQAPGKEREFVAGIVWNGGWTYYADSVKGRFTISRDTAKNTVYLQMNSLKPEDTAVYSCAAGPGDGRRRVAPAEYNYWGQGTQVTVSS"}, "B2": {"name": "anti-MICA VHH nanobody clone H3 (VHH)", "VHH": "QVQLVETGGGLVQAGGSLRLSCAASGRTFSSYAMGWFRQAPGKEREFVAGISWSGGSTYYGDSVKGRFTISRDNAKNTVYLLMNSLKPEDTAVYYCAADLVRSYGSSWPSLFQFRNPEDVQDGMDYWGKGTLVTVSS"}, "B3": {"name": "anti-p42 A6 VHH (P. falciparum MSP-1 specific) (VHH)", "VHH": "QVQLVESGGGLVQAGGSLRLSCAASARTFSYYGAAWFRQAPGKEREFVAAVSWNGDDTYYADSVKGRFTISRDNTKNTVSLQMNALKPEDTAVYYCEAAAYGRDWRQSANYVYWGQGTQVTVSS"}, "B4": {"name": "anti-MICA VHH nanobody clone A1 (VHH)", "VHH": "QVQLVESGGGLVQPGGSLRLSCAASGFTLDYYDIGWFRQAPGKEREGVSCITSSDGSTYYADSVKGRFTISRDNAKNTVYLQMNSLKPEDTAVYYCAADCTKPQWKSKTEAWGQGTQVTVSS"}, "B5": {"name": "anti-p83 B4 VHH (P. falciparum MSP-1 specific) (VHH)", "VHH": "QLQLVESGGGLAQAGGSLRLSCAASGRTSSTKPMGWFRQAPGLEREFVASISWLGGSTLYSDSVKGRFTISRDNAKNTVYLQMNSLKSEDTAVYYCAGGTSAYSGRDSSRYEYWGQGTQVTVSS", "notes": "also called anti-p84 B4"}}, "key": {"[1]": {"target": "T1, P. falciparum MSP-1 subunit p83 (plate-bound, isolated) (Plasmodium falciparum, UniProt Q8I0U8 20-722)", "T1 construct": "domain: p83", "T1 sequence": "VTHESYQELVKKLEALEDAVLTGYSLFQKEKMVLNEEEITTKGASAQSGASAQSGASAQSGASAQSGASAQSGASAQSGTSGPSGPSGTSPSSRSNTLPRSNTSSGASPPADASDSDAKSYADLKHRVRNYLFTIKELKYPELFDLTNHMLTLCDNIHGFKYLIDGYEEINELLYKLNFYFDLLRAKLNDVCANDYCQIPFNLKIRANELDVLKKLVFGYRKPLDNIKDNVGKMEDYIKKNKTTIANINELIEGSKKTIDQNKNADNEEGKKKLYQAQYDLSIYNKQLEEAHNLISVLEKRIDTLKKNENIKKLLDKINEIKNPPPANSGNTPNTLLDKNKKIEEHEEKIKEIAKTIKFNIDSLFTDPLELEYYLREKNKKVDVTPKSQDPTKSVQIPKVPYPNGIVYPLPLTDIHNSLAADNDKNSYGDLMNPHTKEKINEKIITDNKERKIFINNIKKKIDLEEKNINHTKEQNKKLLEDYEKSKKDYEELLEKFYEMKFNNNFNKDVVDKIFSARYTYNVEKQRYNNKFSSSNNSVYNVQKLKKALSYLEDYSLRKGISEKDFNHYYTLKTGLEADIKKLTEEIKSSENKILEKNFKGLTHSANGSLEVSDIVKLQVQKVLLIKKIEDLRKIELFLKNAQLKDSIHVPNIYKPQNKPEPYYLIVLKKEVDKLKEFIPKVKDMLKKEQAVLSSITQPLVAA", "experiment": "Western blot against PfMSP-1 subunits"}, "[2]": {"target": "T2, P. falciparum MSP-1 subunit p38 (plate-bound, isolated) (Plasmodium falciparum, UniProt Q8I0U8 911-1326)", "T2 construct": "domain: p38", "T2 sequence": "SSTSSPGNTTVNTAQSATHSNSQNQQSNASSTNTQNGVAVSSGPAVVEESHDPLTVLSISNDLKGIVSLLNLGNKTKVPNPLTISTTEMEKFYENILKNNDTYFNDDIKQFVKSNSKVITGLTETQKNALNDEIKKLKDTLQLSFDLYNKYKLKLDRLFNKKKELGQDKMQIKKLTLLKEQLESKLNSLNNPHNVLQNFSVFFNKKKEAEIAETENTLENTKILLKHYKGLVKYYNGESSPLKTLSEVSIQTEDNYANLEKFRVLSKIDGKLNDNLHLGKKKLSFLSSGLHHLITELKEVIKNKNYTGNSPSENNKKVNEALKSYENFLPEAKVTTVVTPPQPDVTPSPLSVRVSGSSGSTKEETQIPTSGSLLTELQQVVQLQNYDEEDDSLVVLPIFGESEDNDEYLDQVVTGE", "experiment": "Western blot against PfMSP-1 subunits"}, "[3]": {"target": "T3, MICB expressed on transfected B16F10 melanoma cells (human, UniProt Q29980 23-383)", "T3 construct": "whole, on cells; also called MICB-transfected cells", "T3 sequence (looked up)": "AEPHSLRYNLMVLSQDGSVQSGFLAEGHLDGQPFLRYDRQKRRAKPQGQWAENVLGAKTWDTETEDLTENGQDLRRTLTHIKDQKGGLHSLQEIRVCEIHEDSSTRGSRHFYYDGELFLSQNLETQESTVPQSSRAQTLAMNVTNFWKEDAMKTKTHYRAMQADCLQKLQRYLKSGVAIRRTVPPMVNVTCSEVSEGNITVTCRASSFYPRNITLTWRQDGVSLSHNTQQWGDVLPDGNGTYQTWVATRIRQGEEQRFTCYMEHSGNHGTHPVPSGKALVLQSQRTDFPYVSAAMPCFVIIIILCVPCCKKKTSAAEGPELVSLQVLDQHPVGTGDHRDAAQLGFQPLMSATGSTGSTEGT", "experiment": "flow cytometry of transfected B16F10 cells, biotinylated nanobody with streptavidin-PE"}, "[4]": {"target": "T4, P. falciparum MSP-1 subunit p42 (plate-bound, isolated) (Plasmodium falciparum, UniProt Q8I0U8 1327-1699)", "T4 construct": "domain: p42", "T4 sequence": "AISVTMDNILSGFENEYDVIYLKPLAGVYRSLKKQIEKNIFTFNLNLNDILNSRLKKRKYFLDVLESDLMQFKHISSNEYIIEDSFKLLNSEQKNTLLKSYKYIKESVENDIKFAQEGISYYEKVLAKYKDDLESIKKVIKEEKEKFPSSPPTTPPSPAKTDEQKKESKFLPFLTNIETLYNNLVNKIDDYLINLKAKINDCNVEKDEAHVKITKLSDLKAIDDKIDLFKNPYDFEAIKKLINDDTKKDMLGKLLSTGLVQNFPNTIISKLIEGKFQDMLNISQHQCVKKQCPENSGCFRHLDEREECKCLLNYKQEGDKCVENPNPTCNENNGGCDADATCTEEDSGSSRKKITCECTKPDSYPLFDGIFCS", "experiment": "Western blot against PfMSP-1 subunits"}}}
{"binder": "B1", "values": [{"measurement": "binding result", "setting": "[1]", "result": "no binding"}, {"measurement": "binding result", "setting": "[2]", "result": "no binding"}]}
{"binder": "B2", "values": [{"measurement": "binding result", "setting": "[3]", "result": "no binding"}]}
{"binder": "B3", "values": [{"measurement": "binding result", "setting": "[1]", "result": "no binding"}, {"measurement": "binding result", "setting": "[2]", "result": "no binding"}]}
{"binder": "B4", "values": [{"measurement": "binding result", "setting": "[3]", "result": "no binding"}]}
{"binder": "B5", "values": [{"measurement": "binding result", "setting": "[2]", "result": "no binding"}, {"measurement": "binding result", "setting": "[4]", "result": "no binding"}]}
